According to paper PMC8826850 (2022):

Molecular target: SARS-CoV-2 HexaPro spike protein, wild type (SARS-CoV-2 wild type (GenBank …, UniProt A0A679G9E9, F817 to proline | A892 to proline | A899 to proline | A942 to proline | K986 to …))
Experiment: BLI
Conditions: both partners purified

B1: S2-E12 (antibody, V domains shown)
VH: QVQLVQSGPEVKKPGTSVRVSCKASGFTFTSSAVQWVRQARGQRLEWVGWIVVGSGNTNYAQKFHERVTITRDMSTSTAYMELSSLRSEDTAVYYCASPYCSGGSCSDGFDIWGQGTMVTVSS
VL: DIVLTQTPGTLSLSPGERATLSCRASQSVSSSYLAWYQQKPGQAPRLLIYGASSRATGIPDRFSGSGSGTDFTLTISRLEPEDFAVYYCQQYVGLTGWTFGQGTKVEIK
B1: binds.
